Laboratory results from article PMC9457993.
Where “and” joins values, the source holds several entries; their conditions need not be identical. Equal values may be shown once.

Columns and labels:
[1] = molecular target: Liraglutide; test: SEC-MALS; HPLC-UV-dRI-MALS, Shodex Protein KW-802.5; mobile phase 1 g/L L-Arginine: Acetonitrile: acetic acid, 35:50:15 (results say 30% acetonitrile), isocratic 0.5 mL/min; Liraglutide FDF Lot #33387-18 and Saxenda Lot #JP54138, 6 mg/mL
[2] = molecular target: Liraglutide; test: AF4-MALS (asymmetrical flow field-flow fractionation with UV, fluorescence, dRI and MALS detection); Liraglutide 6 mg/mL (API resuspended in water or formulation, FDF, Victoza, Saxenda), 30 uL injected; formulation buffer (disodium phosphate dihydrate, propylene glycol, phenol, water) as mobile phase; PES membrane 1 kDa cutoff; molar mass by MALS with dRI; n = 3
[3] = molecular target: Liraglutide; test: AF4-MALS (asymmetrical flow field-flow fractionation with UV, fluorescence, dRI and MALS detection); thermally stressed, aggregated API (APIaggr), 3 mg/mL in formulation, 60 uL injected; formulation buffer as mobile phase
[4] = molecular target: Liraglutide; test: as above; remark: listed apart in the source

Liraglutide (peptide)
relative abundance of monomer [1]: > 99.5% | stoichiometry N [1]: 2 and 4 | stoichiometry N [2]: 5.2 units | stoichiometry N [3]: 20 units | stoichiometry N [4]: > 20 units
